Experimental data reported in US20060258562A1 (HEALOR, published 2006).

B1: PKCα (protein kinase C alpha) (enzyme)
chain: not shown
B2: PKCζ (protein kinase C zeta) (enzyme, mouse, UniProt Q02956 1-592, looked up)
chain: MPSRTDPKMDRSGGRVRLKAHYGGDILITSVDAMTTFKDLCEEVRDMCGLHQQHPLTLKWVDSEGDPCTVSSQMELEEAFRLVCQGRDEVLIIHVFPSIPEQPGMPCPGEDKSIYRRGARRWRKLYRANGHLFQAKRFNRGAYCGQCSERIWGLSRQGYRCINCKLLVHKRCHVLVPLTCRRHMDSVMPSQEPPVDDKNDGVDLPSEETDGIAYISSSRKHDNIKDDSEDLKPVIDGVDGIKISQGLGLQDFDLIRVIGRGSYAKVLLVRLKKNDQIYAMKVVKKELVHDDEDIDWVQTEKHVFEQASSNPFLVGLHSCFQTTSRLFLVIEYVNGGDLMFHMQRQRKLPEEHARFYAAEICIALNFLHERGIIYRDLKLDNVLLDADGHIKLTDYGMCKEGLGPGDTTSTFCGTPNYIAPEILRGEEYGFSVDWWALGVLMFEMMAGRSPFDIITDNPDMNTEDYLFQVILEKPIRIPRFLSVKASHVLKGFLNKDPKERLGCRPQTGFSDIKSHAFFRSIDWDLLEKKQTLPPFQPQITDDYGLDNFDTQFTSEPVQLTPDDEDVIKRIDQSEFEGFEYINPLLLSAEESV
B3: PKCη (protein kinase C eta) (enzyme, mouse, UniProt P23298 1-683, looked up)
chain: MSSGTMKFNGYLRVRIGEAVGLQPTRWSLRHSLFKKGHQLLDPYLTVSVDQVRVGQTSTKQKTNKPTYNEEFCANVTDGGHLELAVFHETPLGYDHFVANCTLQFQELLRTAGTSDTFEGWVDLEPEGKVFVVITLTGSFTEATLQRDRIFKHFTRKRQRAMRRRVHQVNGHKFMATYLRQPTYCSHCREFIWGVFGKQGYQCQVCTCVVHKRCHHLIVTACTCQNNINKVDAKIAEQRFGINIPHKFNVHNYKVPTFCDHCGSLLWGIMRQGLQCKICKMNVHIRCQANVAPNCGVNAVELAKTLAGMGLQPGNISPTSKLISRSTLRRQGKEGSKEGNGIGVNSSSRFGIDNFEFIRVLGKGSFGKVMLARIKETGELYAVKVLKKDVILQDDDVECTMTEKRILSLARNHPFLTQLFCCFQTPDRLFFVMEFVNGGDLMFHIQKSRRFDEARARFYAAEIISALMFLHEKGIIYRDLKLDNVLLDHEGHCKLADFGMCKEGICNGVTTATFCGTPDYIAPEILQEMLYGPAVDWWAMGVLLYEMLCGHAPFEAENEDDLFEAILNDEVVYPTWLHEDATGILKSFMTKNPTMRLGSLTQGGEHEILRHPFFKEIDWAQLNHRQLEPPFRPRIKSREDVSNFDPDFIKEEPVLTPIDEGHLPMINQDEFRNFSYVSPELQL
B4: PKCε (protein kinase C epsilon) (enzyme, mouse, UniProt P16054 1-737, looked up)
chain: MVVFNGLLKIKICEAVSLKPTAWSLRHAVGPRPQTFLLDPYIALNVDDSRIGQTATKQKTNSPAWHDEFVTDVCNGRKIELAVFHDAPIGYDDFVANCTIQFEELLQNGSRHFEDWIDLEPEGKVYVIIDLSGSSGEAPKDNEERVFRERMRPRKRQGAVRRRVHQVNGHKFMATYLRQPTYCSHCRDFIWGVIGKQGYQCQVCTCVVHKRCHELIITKCAGLKKQETPDEVGSQRFSVNMPHKFGIHNYKVPTFCDHCGSLLWGLLRQGLQCKVCKMNVHRRCETNVAPNCGVDARGIAKVLADLGVTPDKITNSGQRRKKLAAGAESPQPASGNSPSEDDRSKSAPTSPCDQELKELENNIRKALSFDNRGEEHRASSATDGQLASPGENGEVRPGQAKRLGLDEFNFIKVLGKGSFGKVMLAELKGKDEVYAVKVLKKDVILQDDDVDCTMTEKRILALARKHPYLTQLYCCFQTKDRLFFVMEYVNGGDLMFQIQRSRKFDEPRSRFYAAEVTSALMFLHQHGVIYRDLKLDNILLDAEGHCKLADFGMCKEGIMNGVTTTTFCGTPDYIAPEILQELEYGPSVDWWALGVLMYEMMAGQPPFEADNEDDLFESILHDDVLYPVWLSKEAVSILKAFMTKNPHKRLGCVAAQNGEDAIKQHPFFKEIDWVLLEQKKIKPPFKPRIKTKRDVNNFDQDFTREEPILTLVDEAIIKQINQEEFKGFSYFGEDLMP

Target: T1, STAT3 (Signal Transducer and Activator of Transcription 3) (mouse, UniProt P42227 2-770)
T1 construct: Detected by anti-STAT3 Western blot in PKC immunoprecipitates
T1 sequence (P42227 2-770 limits assumed): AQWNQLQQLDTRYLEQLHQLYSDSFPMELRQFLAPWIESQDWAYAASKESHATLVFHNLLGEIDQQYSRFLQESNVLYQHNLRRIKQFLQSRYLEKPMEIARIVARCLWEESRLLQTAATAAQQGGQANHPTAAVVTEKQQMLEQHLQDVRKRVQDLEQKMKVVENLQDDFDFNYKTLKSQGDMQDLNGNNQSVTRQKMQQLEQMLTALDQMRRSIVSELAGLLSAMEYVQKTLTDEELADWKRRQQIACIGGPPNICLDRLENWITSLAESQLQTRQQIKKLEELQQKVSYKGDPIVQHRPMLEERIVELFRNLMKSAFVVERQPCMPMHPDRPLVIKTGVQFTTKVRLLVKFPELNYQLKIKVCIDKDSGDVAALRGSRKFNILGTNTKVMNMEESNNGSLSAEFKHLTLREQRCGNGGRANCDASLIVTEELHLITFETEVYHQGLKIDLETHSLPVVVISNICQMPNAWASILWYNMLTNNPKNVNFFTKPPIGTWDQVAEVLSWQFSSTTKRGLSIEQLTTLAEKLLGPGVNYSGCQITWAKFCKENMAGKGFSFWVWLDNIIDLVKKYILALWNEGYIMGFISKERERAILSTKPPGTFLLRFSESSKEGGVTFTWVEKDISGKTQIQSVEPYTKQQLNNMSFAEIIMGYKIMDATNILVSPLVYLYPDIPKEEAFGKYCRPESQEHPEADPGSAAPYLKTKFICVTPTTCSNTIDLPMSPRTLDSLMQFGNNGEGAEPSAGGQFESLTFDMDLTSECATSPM
Experiment: co-immunoprecipitation from primary keratinocyte lysates, anti-STAT3 Western blot
Experimental: FIG. 23 identifies a specific interaction between STAT3 and PKCδ in primary skin keratinocytes. Primary keratinocytes were either untreated (upper panel) or infected for 1 hour with isoform specific, recombinant PKC α, δ, η or ζ adenoviruses (lower panel). Cells were extracted and immunoprecipitated (IP) with isoform specific PKC antibodies. The immunoprecipitates were subjected to Western blot analysis using anti-PKCs or anti-STAT3 antibodies.

Binder	binding result
B1	no binding
B2	no binding
B3	no binding
B4	no binding
